Measurements published in article PMC12173945, “Import mechanism of peroxisomal proteins with an N-terminal signal sequence” (Nature Cell Biology, 2025).

Assays:
[1] = system: YG hydrogel (wild-type YG-domain polypeptide of PEX13); assay: YG hydrogel permeation assay, wild-type hydrogel (Fig. 2, Fig. 3g, Extended Data Fig. 9d); settings: wild-type hydrogel
Protocol: A solution of the purified wild-type YG-domain polypeptide (or the variant lacking the KPWE motif) was concentrated to 2 mM in 50 mM HEPES·NaOH pH 7.8 at RT, 2 M urea and 2 mM TCEP. Aliquots of 2 µl were then spotted on the bottom of multiple wells of a 96-well glass-bottomed plate (Cellvis, P96-1.5H-N), which was then sealed with a gas-impermeable AlumaSeal II film (Hampton Research, HR8-069) to prevent desiccation and incubated at RT for 24 h. Before each assay, the resulting gels were equilibrated overnight at RT in a 100-fold excess of Assay Buffer (25 mM HEPES·NaOH pH 7.8 at RT, 150 mM NaCl and 1 mM TCEP). A 0.5 µM solution of fluorescently labelled protein in Assay Buffer was then added to the samples, with or without additional components at the concentrations indicated in the text, and incubated at RT. Gels were imaged at the times indicated in the text using a Nikon A1R point-scanning confocal system consisting of an inverted Nikon Eclipse Ti microscope and a Nikon ×20 0.75 NA Plan Apo air objective. The objective was centred on the gel edge and focus was maintained 5 µm above the glass surface using the Nikon Perfect Focus System. Fluorescence was excited through a 405/488/561/647 quad-band dichroic (Chroma), using a 488-nm solid-state laser (Coherent) and a galvano scanner. A 50-nm emission band was collected on a gallium arsenide phosphide detector, using an ET525/50m (525 ± 25 nm) single-band bandpass filter (Chroma) and a pinhole dilated to 0.9 Airy units. Images were acquired using the Nikon NIS-Elements software with a pixel size of 1 µm and a 12-bit digitizer. Imaging parameters were configured to maximize the SNR while avoiding saturation. All samples intended to be compared were imaged using identical acquisition settings.
(§1) For the YG hydrogel permeation assay, images were first oriented such that each gel edge faced the same direction. Fluorescence profiles across the buffer–gel interface were then generated by centering a 60 × 300 µm rectangular area on the gel edge and then measuring the mean fluorescence at each position within this selection. To express the resulting values in terms of fold enrichment, the fluorescence at each position along the selection was normalized to the average fluorescence in the buffer and plotted in terms of the distance from the gel edge.
To calculate permeation rates through the YG hydrogel, a 60 × 300 µm rectangular area was first centred on the gel edge. The resulting region was then thresholded to demarcate the permeation zone (that is, the distance traversed by the fluorescent species) from the buffer and non-permeated part of the gel. The width of the area above the threshold was then measured and plotted as a function of time. A linear fit to the data yielded the permeation rate.

[2] = system: peroxisomes in Xenopus egg extract; assay: Peroxisomal protein import assay in Xenopus egg extract; assay type: biochemical, Xenopus laevis; settings: GFP fusion, 1 h
Protocol: Import reactions were performed exactly as described in a previously published protocol. Briefly, extract was mixed with 500 nM of the indicated cargo and 100 nM of the indicated receptor variants with or without 100 nM PEX7, and incubated at 24 °C. Where stated, endogenous PEX5 was first depleted from the extract using agarose beads covalently conjugated to the high-affinity PEX5-binding domain from PEX14. Recombinant proteins were diluted in XBHS buffer (40 mM HEPES·KOH pH 7.7 at RT, 100 mM KCl, 1 mM MgCl2, 0.1 mM CaCl2 and 250 mM sucrose) before being added to the reactions. For imaging, an aliquot of each reaction was sandwiched between two 22 × 22 mm no. […] The samples were illuminated by an 80-mW solid-state 488-nm laser through a Di01-T405/488/568/647 dichroic (Semrock), and fluorescence was collected through a Nikon ×100 1.45 NA Plan Apo Lambda oil-immersion objective and a green-emission ET525/50 m (525 ± 25 nm) single-band bandpass filter (Chroma). […]
To calculate import rates in Xenopus egg extract, images were first thresholded to identify peroxisomes that were within the focal plane. A circular area with a diameter of 3 pixels was then centred on each local maximum and the mean fluorescence within this area was measured; the average fluorescence in the cytosol was then subtracted from the measured values. […]

[3] = system: YG hydrogel (∆KPWE YG-domain polypeptide of PEX13); assay: YG hydrogel permeation assay, hydrogel lacking the KPWE motif (Fig. 3g); settings: 1 h
Protocol: A solution of the purified wild-type YG-domain polypeptide (or the variant lacking the KPWE motif) was concentrated to 2 mM in 50 mM HEPES·NaOH pH 7.8 at RT, 2 M urea and 2 mM TCEP. Aliquots of 2 µl were then spotted on the bottom of multiple wells of a 96-well glass-bottomed plate (Cellvis, P96-1.5H-N), which was then sealed with a gas-impermeable AlumaSeal II film (Hampton Research, HR8-069) to prevent desiccation and incubated at RT for 24 h. Before each assay, the resulting gels were equilibrated overnight at RT in a 100-fold excess of Assay Buffer (25 mM HEPES·NaOH pH 7.8 at RT, 150 mM NaCl and 1 mM TCEP). […] Fluorescence was excited through a 405/488/561/647 quad-band dichroic (Chroma), using a 488-nm solid-state laser (Coherent) and a galvano scanner. […]
as §1

Molecule	Entry into YG hydrogel [1]	Import into peroxisomes in Xenopus egg extract [2]	Entry into YG hydrogel lacking the KPWE motif [3]
PEX7–GFP: PEX7 fused at the C terminus to a linker (SGSG) followed by mEGFP (protein, left off: GST, N-terminal, cleaved | GFP, C-terminal, kept) MLRYHMQGFSGYGVQYSPFFDNRLAVAAGSNFGLVGNGKLFILEIDRSGRIVEVNSFLTQDCLFDLAWNESHENQVLVAQGDGTLRLFDTTFKEFPIAIFKEHEREVFSCNWNLVNRQNFLSSSWDGSIKIWSPLRKQSLMTLTPRPLEITKMVDPLNAIILKKKSFTGISKNRNCVYQAQFSPHDQNLVLSCSGNSYASLFDIRLPSGKNQNNFLVHSGLEALTCDFNKYRPYVVATGGVDNAIRIWDIRMLNKNESATIKRTVPGQLHNSSCINEIPNAHGLAIRKVTWSPHHSNILMSASYDMTCRIWRDLSNDGAKETYKTNSTDATKGSIFNFTQHSEFVFGADWSLWGKPGYVASTAWDGNLFVWNGLG	readily entered the phase	enters peroxisomes only when it is assembled into a complex with PEX5 and cargo	–
PEX7: full-length PEX7 from S. cerevisiae (GenBank accession no. NP_010426.1) (protein, left off: GST, N-terminal, cleaved) MLRYHMQGFSGYGVQYSPFFDNRLAVAAGSNFGLVGNGKLFILEIDRSGRIVEVNSFLTQDCLFDLAWNESHENQVLVAQGDGTLRLFDTTFKEFPIAIFKEHEREVFSCNWNLVNRQNFLSSSWDGSIKIWSPLRKQSLMTLTPRPLEITKMVDPLNAIILKKKSFTGISKNRNCVYQAQFSPHDQNLVLSCSGNSYASLFDIRLPSGKNQNNFLVHSGLEALTCDFNKYRPYVVATGGVDNAIRIWDIRMLNKNESATIKRTVPGQLHNSSCINEIPNAHGLAIRKVTWSPHHSNILMSASYDMTCRIWRDLSNDGAKETYKTNSTDATKGSIFNFTQHSEFVFGADWSLWGKPGYVASTAWDGNLFVWNGLG	–	–	some entry of PEX7 into YG hydrogels was observed in the absence of the KPWE motif
